The target of one experiment is VEGFR2 (Homo sapiens, UniProt P35968). The settings on record: cell-free assays; cited from earlier work.
The test system of experiment [1] is hiPSC chondrogenic pellets. Put plainly: RT-qPCR of pellets treated with WNT ligands. Format: cell-based, human. As to the method:
(§1) WNT ligands treatment during chondrogenesis. For WNT ligands treatment during chondrogenesis, pellets were treated with either 10 ng ml^−1 TGF-β3 (control group) or a combination of 10 ng ml^−1 TGF-β3 and 100 ng ml^−1 individual WNT ligand (WNT2B, WNT3A, WNT4, WNT5B, or WNT7B, all from R&D system) in chondrogenic medium from d0 to d42 as appropriate. For WNT ligands treatment during the Cp stage, cells were supplemented with either 20 ng ml^−1 BMP4 (R&D Systems, #314-BP-010) alone (control group), a combination of 20 ng ml^−1 BMP4 and 1 μM WNT-059, or a combination of 20 ng ml^−1 BMP4 and 100 ng ml^−1 WNT3A (R&D Systems, #5036-WN-010) in mesodermal differentiation medium from d7 to d12.
RT-qPCR. RNA of the pellets was isolated using the Total RNA Purification Kit according to the manufacture's protocol (Norgen Biotek, #37500). Reverse transcription of the RNA was performed using SuperScript VILO Master Mix (Thermo Fisher, #11755050). Fast SYBR Green Master Mix (Thermo Fisher, #4385614) was used for reverse transcription-quantitative polymerase chain reaction (RT-qPCR) according to the manufacturer's instructions on the QuantStudio 3 (Thermo Fisher). Gene expression was analyzed using the ΔΔCT method relative to undifferentiated hiPSCs with the reference gene TATA-box-binding protein (TBP).
A general note: Quantitative PCR measures a nucleic acid by following its amplification.

The subject of experiment [2] is hiPSC chondrogenic pellets. As to the kind of experiment: Immunohistochemistry of collagens in pellets. Format: cell-based, human. The settings on record: pellet culture. As to the method: as §1
Immunohistochemistry. Histologic sections (8 μm thick) of the pellets were rinsed with xylenes three times and rehydrated before labeling. Antigen retrieval was performed with 0.02% proteinase K for 3 min at 37° C. for COL2A1 and COL6A1 and with pepsin for 5 min at room temperature for COL1A1 and COL10A1 followed by peroxidase quench then serum blocking for 30 min at room temperature. […]

Experiment [3] relates to hiPSC chondrogenic pellets. Put plainly: Biochemical analysis of cartilaginous matrix production (GAG/DNA) in hiPSC chondrogenic pellets. To be noted: 100 ng/ml WNT ligand + TGF-β3 vs TGF-β3 only. It counts as cell-based, human. As to the method: Chondrogenic differentiation. Cells dissociated at the Cp stage were resuspended at 5×10^5 cells per mL in chondrogenic medium consisting of DMEM/F-12, 1% FBS, 1% ITS+, 55 μM β-mertcaptoethanol, 100 nM dexamethasone (DEX; Sigma-Aldrich, #D4902), 1% NEAA (Gibco, #11140050), 1% P/S, 10 ng ml^−1 human transforming growth factor-beta 3 (TGF-β3; R&D Systems, #243-B3-010), 50 μg ml^−1 L-ascorbic acid 2-phosphate (ascorbate; Sigma-Aldrich, #A8960), and 40 μg ml^−1 L-Proline (proline; Sigma-Aldrich, #P5607). Cells were then centrifuged for 5 min at 300×g to form a pellet. Chondrogenic pellets were cultured at 37° C. for up to the timepoints required for various experiments.
WNT-C59 and ML329 treatment for WNT and MITF inhibition. For WNT-C59 treatment for WNT inhibition during chondrogenesis, pellets were treated with either 10 ng ml^−1 TGF-β3 (control group) or a combination of 10 ng ml^−1 TGF-β3 and 1 μM WNT-C59 in a chondrogenic medium from d0 to d42 as appropriate. […]
Biochemical analysis of cartilaginous matrix production. […] GAG content, as calculated based on the standard curve, was normalized to double-stranded DNA content to obtain the GAG/DNA ratio.

The subject of experiment [4] is CD146/CD166+ cells at the Cp stage. As to the kind of experiment: FACS for progenitors at the Cp stage. Format: cell-based, human. To be noted: with BMP4, 1 μM WNT-C59 or 100 ng/ml WNT3A. As for the experimental part: as §1
FACS for progenitors. […] Data were analyzed using FlowJo software (version 10.5.3).

VEGFR2, sequence (P35968 20-1356, species assumed): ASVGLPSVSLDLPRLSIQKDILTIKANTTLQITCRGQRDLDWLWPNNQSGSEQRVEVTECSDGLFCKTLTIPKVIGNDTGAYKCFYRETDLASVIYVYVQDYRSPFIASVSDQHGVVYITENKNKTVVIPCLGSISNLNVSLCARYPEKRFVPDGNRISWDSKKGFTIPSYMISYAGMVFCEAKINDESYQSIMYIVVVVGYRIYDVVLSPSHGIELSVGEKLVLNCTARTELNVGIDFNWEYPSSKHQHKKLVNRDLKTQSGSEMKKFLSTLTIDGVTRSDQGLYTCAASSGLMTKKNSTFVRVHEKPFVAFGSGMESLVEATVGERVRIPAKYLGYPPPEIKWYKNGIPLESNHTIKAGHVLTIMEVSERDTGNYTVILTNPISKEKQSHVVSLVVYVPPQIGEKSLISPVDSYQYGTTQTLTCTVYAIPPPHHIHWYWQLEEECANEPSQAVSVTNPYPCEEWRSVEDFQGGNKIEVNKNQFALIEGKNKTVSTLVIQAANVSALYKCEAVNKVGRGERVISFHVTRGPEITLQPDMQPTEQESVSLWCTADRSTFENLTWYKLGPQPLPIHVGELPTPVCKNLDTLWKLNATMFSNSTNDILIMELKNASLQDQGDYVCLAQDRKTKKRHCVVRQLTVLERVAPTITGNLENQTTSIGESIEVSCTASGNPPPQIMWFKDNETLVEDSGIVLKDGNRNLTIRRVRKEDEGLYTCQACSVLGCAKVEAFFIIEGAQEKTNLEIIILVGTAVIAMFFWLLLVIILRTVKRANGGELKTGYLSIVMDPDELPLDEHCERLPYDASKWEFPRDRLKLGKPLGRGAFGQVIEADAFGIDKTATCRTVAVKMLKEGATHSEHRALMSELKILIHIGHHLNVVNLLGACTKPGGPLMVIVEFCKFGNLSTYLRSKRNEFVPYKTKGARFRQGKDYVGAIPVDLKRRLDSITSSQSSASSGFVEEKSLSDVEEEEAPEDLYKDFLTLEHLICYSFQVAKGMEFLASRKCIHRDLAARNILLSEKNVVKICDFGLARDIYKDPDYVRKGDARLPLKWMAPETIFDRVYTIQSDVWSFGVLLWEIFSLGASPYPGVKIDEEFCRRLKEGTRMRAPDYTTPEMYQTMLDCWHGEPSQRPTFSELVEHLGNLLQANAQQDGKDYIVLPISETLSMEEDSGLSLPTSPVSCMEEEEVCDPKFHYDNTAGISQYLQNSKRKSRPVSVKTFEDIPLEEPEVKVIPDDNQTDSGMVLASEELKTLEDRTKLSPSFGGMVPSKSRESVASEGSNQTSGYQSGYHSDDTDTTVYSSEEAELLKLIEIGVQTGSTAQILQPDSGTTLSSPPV

One may read the IC50 as the concentration needed to halve the response being measured. On to `CCN(CC)CCCCNc1ncc2cc(-c3cc(OC)cc(OC)c3)c(NC(=O)NC(C)(C)C)nc2n1` [PD173074], for which the IC50 on VEGFR2 was 100 to 200 nM.

B1: WNT7B: WNT ligand (R&D system) added at 100 ng/ml (protein, UniProt P56706 25-349, looked up)
Protein Wnt-7b: ALSSVVALGANIICNKIPGLAPRQRAICQSRPDAIIVIGEGAQMGINECQYQFRFGRWNCSALGEKTVFGQELRVGSREAAFTYAITAAGVAHAVTAACSQGNLSNCGCDREKQGYYNQAEGWKWGGCSADVRYGIDFSRRFVDAREIKKNARRLMNLHNNEAGRKVLEDRMQLECKCHGVSGSCTTKTCWTTLPKFREVGHLLKEKYNAAVQVEVVRASRLRQPTFLRIKQLRSYQKPMETDLVYIEKSPNYCEEDAATGSVGTQGRLCNRTSPGADGCDTMCCGRGYNTHQYTKVWQCNCKFHWCCFVKCNTCSERTEVFTCK
With B1, the “chondrogenic markers (SOX9, ACAN, COL2A1) and osteogenic marker (COL1A1)” value in experiment [1] (100 ng/ml WNT ligand + TGF-β3 vs TGF-β3 only) is on record as “significantly decreased”. In addition, the “expression of MITF” value in experiment [1] (100 ng/ml WNT ligand, relative to TGF-β3 pellets) is listed as “significantly lower”.

B2: WNT3A: WNT ligand (R&D Systems) added at 100 ng/ml (protein, UniProt P56704 19-352, looked up)
Protein Wnt-3a: SYPIWWSLAVGPQYSSLGSQPILCASIPGLVPKQLRFCRNYVEIMPSVAEGIKIGIQECQHQFRGRRWNCTTVHDSLAIFGPVLDKATRESAFVHAIASAGVAFAVTRSCAEGTAAICGCSSRHQGSPGKGWKWGGCSEDIEFGGMVSREFADARENRPDARSAMNRHNNEAGRQAIASHMHLKCKCHGLSGSCEVKTCWWSQPDFRAIGDFLKDKYDSASEMVVEKHRESRGWVETLRPRYTYFKVPTERDLVYYEASPNFCEPNPETGSFGTRDRTCNVSSHGIDGCDLLCCGRGHNARAERRREKCRCVFHWCCYVSCQECTRVYDVHTCK
With B2, the “COL2A1, COL1A1, and COL10A1 expression” value in experiment [1] (100 ng/ml WNT ligand + TGF-β3 vs TGF-β3 pellets) is recorded as “increased”. Moreover, the “COL1A1 and COL10A1 staining/production” value in experiment [2] is given as “higher intensity”. Further, in experiment [3], the GAG/DNA ratio entry is “significantly decreased”. Further, the “percentage of CD146/CD166+ cells” value in experiment [4] is “increased”.

The values above are taken from patent US20230295571A1, “COMPOSITIONS AND METHODS FOR STEM CELL CHONDROGENESIS” (Washington University, priority 2020, published 2023).
